Laboratory results: publication PMC7415566 (Structure (London, England : 1993), 2020)

T1: human FAM46C (residues 16-358), NTase domain (human, UniProt Q5VWP2 16-358)
T1 sequence (looked up): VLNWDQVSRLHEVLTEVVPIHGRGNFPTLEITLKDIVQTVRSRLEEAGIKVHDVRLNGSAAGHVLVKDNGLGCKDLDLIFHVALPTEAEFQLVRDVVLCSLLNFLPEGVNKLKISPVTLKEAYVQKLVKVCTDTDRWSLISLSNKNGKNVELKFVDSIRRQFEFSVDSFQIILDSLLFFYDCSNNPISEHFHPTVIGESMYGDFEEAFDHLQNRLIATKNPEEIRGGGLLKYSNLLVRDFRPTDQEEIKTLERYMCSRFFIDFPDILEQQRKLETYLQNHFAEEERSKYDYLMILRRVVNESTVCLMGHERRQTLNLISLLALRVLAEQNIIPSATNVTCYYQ

T2: FAM46C E166Q/F193D/F206D (residues 16-350) (human, UniProt Q5VWP2 16-350, E166Q | F193D | F206D)
T2 sequence (looked up): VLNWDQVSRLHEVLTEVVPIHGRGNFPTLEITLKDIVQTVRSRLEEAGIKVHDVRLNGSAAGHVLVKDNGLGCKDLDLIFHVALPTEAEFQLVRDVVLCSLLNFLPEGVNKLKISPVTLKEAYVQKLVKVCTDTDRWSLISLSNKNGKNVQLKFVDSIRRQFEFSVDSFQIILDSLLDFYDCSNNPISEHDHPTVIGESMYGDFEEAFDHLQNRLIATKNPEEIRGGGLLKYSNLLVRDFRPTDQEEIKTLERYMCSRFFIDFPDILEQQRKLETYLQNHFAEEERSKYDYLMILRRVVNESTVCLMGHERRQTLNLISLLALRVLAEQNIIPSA

T3: GST-tagged FAM46C (residues 16-358) (human, UniProt Q5VWP2 16-358)
T3 sequence (looked up): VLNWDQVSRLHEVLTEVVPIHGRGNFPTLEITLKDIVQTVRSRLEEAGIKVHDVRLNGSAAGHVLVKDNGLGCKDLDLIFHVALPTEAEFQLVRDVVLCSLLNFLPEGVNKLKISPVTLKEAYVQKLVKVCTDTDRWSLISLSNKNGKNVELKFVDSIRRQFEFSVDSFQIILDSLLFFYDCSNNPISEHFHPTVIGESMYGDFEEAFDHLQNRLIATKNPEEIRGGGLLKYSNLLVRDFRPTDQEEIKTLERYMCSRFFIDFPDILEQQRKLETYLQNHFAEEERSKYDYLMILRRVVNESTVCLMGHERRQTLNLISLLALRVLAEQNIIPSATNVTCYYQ

T4: GST-tagged FAM46D (residues 7-340) (human, UniProt Q8NEK8 7-340)
T4 sequence (looked up): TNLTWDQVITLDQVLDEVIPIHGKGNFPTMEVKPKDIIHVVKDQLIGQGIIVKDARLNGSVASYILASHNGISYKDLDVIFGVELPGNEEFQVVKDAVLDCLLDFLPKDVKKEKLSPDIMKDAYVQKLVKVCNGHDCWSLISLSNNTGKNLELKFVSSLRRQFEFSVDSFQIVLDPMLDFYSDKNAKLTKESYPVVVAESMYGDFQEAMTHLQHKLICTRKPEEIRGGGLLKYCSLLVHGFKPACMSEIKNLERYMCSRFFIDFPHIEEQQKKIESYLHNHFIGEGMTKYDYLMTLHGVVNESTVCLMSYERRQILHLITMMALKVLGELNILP


Columns and labels:
[1] = target: T1, human FAM46C (residues 16-358), NTase …; assay: crystal structure
[2] = target: T2, FAM46C E166Q/F193D/F206D (residues …); assay: crystal structure
[3] = target: T3, GST-tagged FAM46C (residues 16-358); assay: pull-down
[4] = target: T4, GST-tagged FAM46D (residues 7-340); assay: pull-down

| Binder | binding result [1] | binding result [2] | binding result [3] | binding result [4] |
| --- | --- | --- | --- | --- |
| CPB1-2 of human PLK4 (residues 580-810) (domain or fragment, UniProt O00444 580-810, looked up) WGYQNRTLRSITSPLVAHRLKPIRQKTKKAVVSILDSEEVCVELVKEYASQEYVKEVLQISSDGNTITIYYPNGGRGFPLADRPPSPTDNISRYSFDNLPEKYWRKYQYASRFVQLVRSKSPKITYFTRYAKCILMENSPGADFEVWFYDGVKIHKTEDFIQVIEKTGKSYTLKSESEVNSLKEEIKMYMDHANEGHRICLALESIISEEERKTRSAPFFPIIIGRKPGST | binds | binds | binds | binds |
| CPB1-2 of human PLK4 (residues 580-810) N669R (domain or fragment, UniProt O00444 580-810, looked up) WGYQNRTLRSITSPLVAHRLKPIRQKTKKAVVSILDSEEVCVELVKEYASQEYVKEVLQISSDGNTITIYYPNGGRGFPLADRPPSPTDRISRYSFDNLPEKYWRKYQYASRFVQLVRSKSPKITYFTRYAKCILMENSPGADFEVWFYDGVKIHKTEDFIQVIEKTGKSYTLKSESEVNSLKEEIKMYMDHANEGHRICLALESIISEEERKTRSAPFFPIIIGRKPGST |  |  | binds |  |
